Measurements as given in the DeepSol protein solubility set.

Assay: soluble on expression in E. coli; label from the status in PepcDB or PDB records

Soluble on expression in E. coli, not soluble:
MGSDKIHHHHHHMGQRIPVTLGNIAPLSLRPFQPGRIALVCEGGGQRGIFTAGVLDEFMRAQFNPFDLYLGTSAGAQNLSAFICNQPGYARKVIMRYTTKREFFDPLRFVRGGNLIDLDWLVEATASQMPLQMDTAARLFDSGKSFYMCACRQDDYAPNYFLPTKQNWLDVIRASSAIPGFYRSGVSLEGINYLDGGISDAIPVKEAARQGAKTLVVIRTVPSQMYYTPQWFKRMERWLGDSSLQPLVNLVQHHETSYRDIQQFIEKPPGKLRISEIYPPKPLHSIALGSRIPALREDYKLGRLCGRYFLATVGKLLTEKAPLTRHLVPVVTPESIVIPPAPVANDTLVAEVSDAPQANDPTFNNEDLA, MGSDKIHHHHHHMGYAMRLALIDGEHYPDVNRWALEKLKVDCAVFVGGMEKIGSIRDVERTLSIKLYYDEDIFKALERAIEENEIREVIDLSDEPVLTPEIRFRIASFLLKRGITYIGADFEFKPKEWIKIDVPSINIIGTGKRIGKTAIGGFVGRTLKEEYKVVIVTMGRGGPESPEVIRGDLMEITPEFLVEVSEKGRHAASDHFEDALTAGVATVGCRRCGGGLAGFTFLDVLQKGIEVAKSLNPEIIVFEGSGASFANVLSEGFITVVSALQGKEIKMYLYPLRISLGDLIVVTMADEVKDPGKISSLIKEINPDADIHLTRFSPRLIGNVEGKAVVVTTSTNSAKRVTKELEDRGIDVVGFSGNLANRVKLREELKKVSYDTLIVELKAGAVDVAIKSALRSGKRIVFLDYEPKNIDDKDLRESVKELARRIVNDKGHRKGR, MGSDKIHHHHHHMHDFLQFWLNEFSRSENPQHVNSVLTRAAATLGYEYAAYGMRRPFPISNPQILMVSNYPDRWQERYIEARFANVDSAVKAALGSDRPVTWSASTNASKSAFWAEALSFGIAHGWSSASRGADGTIGVLSLSRRQDAIDTAEKFRNESIVHWLANVAHASMAPFLPAADEFDPDLTRRETDVLKWTADGKTAYEIALILSISESTVNFHVKNIVSKLGSTNKIQAVAKAALMGML, MGSDKIHHHHHHMHEPVTRILVVATNAPVPGLVAAVKQGFHQRVDYLELAERFDNRHVDYGIVRPNRMLERLEGITRFDLRLASQVNQIVRSARYQAVISLSERVGIPLALMLPQTVRHLVIFHHGMSARKLQLIRTLHLQHRWDIVAAISEAEAKGMRQALGLPAERVVALHTPVDTAFYQPQPGRQQASVVQSLGLSHRDYPTLIRAMRRLPHIPCHLRVGSSWISGRSGHEREVLPANISLQPFVPPVQLRTCYQQSRIVVVPIKASTQWSAGCTSVQAAQAMGRPVIATRRPGLAEYVDEGRTALLVEPGDADGMADAIATLWENPDRAERMGQAGRQLMEERFTIEQWLDRVVELTHKMMDWPARRSTSTMTGSAV, MGSDKIHHHHHHMHIDIDWQNVDTVLLDMDGTLLDLAFDNYFWQKLVPETYGAQQGISPQDAQEYIRQQYHAVQHTLNWYCLDYWSERLGLDICAMTTAQGPRAVLRDDTVPFLNALKASGKRRILLTNAHPHNLAVKLEHTGLASHLDLLLSTHTFGYPKEDQRLWRAVTEETGISAEKTLFIDDSEPILDAAARFGIRYCLGVTNPDSGLAEKHYTRHPSLNDYRRLIPSLM, MGSDKIHHHHHHMHIPPFDNQNQAIVGEGDAHVPLTYFNIVKLKEGEAYDYRLKGYETCIVPATGTVDVEVGGEVFADIGNRCVDVWDGDPEGVYVPTNVGAHITARTDAEIFVAGAQFTETLTPFAVRAGELDLVQYGSDETKTHRKIKHILGAGHHDRVGRLLVSELFTVGAGGWSGFPSHKHDTDRLPDETRHDECYNFRFKPDYGSGLQMLQREDNEPGDAYHIMNGSTVLIDKGYHPCCALPGYEMYYFTILGGLSQRSLKQYFQPTHSEQLHTIPGIMDMVAKFK, MGSDKIHHHHHHMHLPNSQIYKNFGESMNPFDIMKASQIACCLEVSSFKPGNVHRNRDYRDIKYHHFINAGIAFGNVVYEAAQKDRDVGLYIKKAVIESKKWSPTNANLGIIMLHIPIAMAAGKLENFDENKLKENLKKIAENTTVEDALNVYDAINIAMAYVNKPKKGPDVTSEDAKKELIEKGLTLLDVYKISAEWDNISKEWVDNFKISFEGYNLLKKYYDELNNINLAVTKTFLNLLAKYPDTLIARKRGFETALKVSKMAEDVLNNFKEEKVKEFDKYLSKEGNKLNPGTTADLIASSLMIFILDRIDKRETILW, MGSDKIHHHHHHMHQPSDFQVFRTLDRTSNARLLRSSTLSDGLALAHWYRDEAEILGYSDPGHHTLSLYLQGGWQTFRRDRPGLYGGPDRFCVMPAEHHSDWAVTRGLGFMHLYISPERLAGAAVRTLDCEPRSLQLEERTYIQDEPLAALCRTLERQDWNEPGEHLLCTSLAHQAVDHLLLTGCGRRTDVRWQGGLAAHVRRRLADYIESHLEQPLELGSLAELAALSEYHFARMFRVSFGLPPHRYVLERRLARARDLLAYSAQPLQEVSLACGFASPSHFNRRFREAHGATPGQYRAALKAS, MGSDKIHHHHHHMHSLTPEYLAALCFDGTQVATLRTLGEYQGKQQLYAAQSPEALKGLRQIAVVESTESSNRLEGVVVAPSRLKSLVIRNATPKSRSEQEIAGYRDALALIHESAAHMPFSEGVVLQLHTLLYRYMPQAGGRWKATNNDIIERHPDGTSRLRFQPVASHLTPMAMADLTGRYATALDQHLADPLVLVPLAMLDLLCIHPFPDGNGRMSRLLTLLLLYHFDYAVGRYISLERIFEETKESYYETLEASSQGWYQGQHDVKPWLDYFWGALLRAYREFEERVGTIERGRGSKGDRVRAEVLGRSLPFSISEIEEACPGVSRDMVRLVLRAMKSEGLIESTGKGRGAKWIKQG, MGSDKIHHHHHHMHTEVQEYGLSLRWVRFIFAAKEILINMVYKVFLSLCIGLALSASAALHAQKAVSGHAPIQVETPARSSGQKHVLQLVTPKLETVRIGIIGLGMRGPGAVERFSKIPGTQIVALCDVLPERVKKTQEILVKAGLPEAAAYSGSEDAWKKLCEREDIDLVYIVTDWKTHAEMGVYAMEHGKHAAIEVPAAMTLEEIWKLIDTSERTRKHCIQLENCVYDFFELTTLNMAHQGVFGEILHAEGAYIHNLEDFWPYYWNNWRLDYNRKHRGDVYATHGMGPACQLLDIHRGDRMKTIVAMDTKAVNGPAYIKNKTGEVVADFQNGDQTTSLIRTEKGKTLLIQHNVMTPRPYSRKYQAVGTDGFADKYPLEMYCLRPAQVDSDIAPDHEKLNAHGPVSEEVKKALMEKYKHPIHRELEETAKKVGGHGGMDYIMDYRLIYCLRNGLPLDMDVYDLAEWCCLAELSRISIENGSAPVAIPDFTRGNWDKVKGYRHAMAE, MGSDKIHHHHHHMIEQIGSVEEADAGKVLESLVLSFSPSLLPLRQRWRNNGLSADFLGDYVTTFFPGAGDDTTTADRQKHAKAAVSYIANELLENAMKYSAAESTRPITITLSLEAERITFIETNPVSRARAATFHSYATELIASDPMEMYLRILEEERSDDDGSGLGLITMINDYNASLSWRFEDPGEDTVMVSTIVQIPV, MGSDKIHHHHHHMIHIKRAPDTETAYLVMKEGFSDYMIPLGLSPEVFQERILERDGNQLEHSFIAYHGERPVAIWLNGLKTIKKKTVMRCGGLAVDPQYRRLGIAKALYDAQLSYAKSLNVDCLMLEVIQGNEPAITLYKSFGYQTVSELGYFHKEESGQVEPLVEIDQVAFERRYIQQDEYIWQQDPGVMKLAKARYYELDGAFIAAVNESIFAILTDEEEVARVATEATRRLAGELYHLQSTNQQVWEELLKAGWQQRDLKQFIMQKPISV, MGSDKIHHHHHHMIIAVSGKGGVGKTAFTTLLIKALSKKTNSILVVDADPDSNLPETLGVEVEKTVGDIREELKKLVERDEIPAGMTKLDYLRSKIFEILVETKYYDLLVMGRPEGSGCYCSVNNWLRQIIDNLAKDYEFVVIDTEAGLEHLSRRTTQNVDVMIVITDASKRGLGTAKRIKKLANELEVKFKDIYVVANKVKPEYEELIDNYAKELGLNLIGKLPYNKEIAEYDLKGIPLWNLPENNEVYKKVEEIAEKIINKKF, MGSDKIHHHHHHMIIDAHTHVWPEKIAAKALAGRVPGMEAKFDGTVAGLKRSMDAAGIDHCVAFGIADHARHVERANEFISSQRSDWLTPFGTIHLDLSVEENMEILQRHGIKGVKLHPLFQRFRLDDRRLWALFDAFGSDIAVITHVGFGGQGSANENSTPQMIVDIARNFPKLRFMACHFGGFRRLDEAEKYVVGLPIVLETSWPPGLAEIPTERLRAIVHRHGPDRIIFGSDWPMVDPADEIEAIRRLELHPDDEAAILGGNLARILGMES, MGSDKIHHHHHHMIKLIVSDIDGTLVDSQGQLLPATITGVQAAVARGAQMVLASARSPKGMFGIAQQLGINSTMIAYNGALTATTDVNDRLTVFEEQAVDPKLAQAVQTVVAHDWPAASISIYSNNNWLVATNGPWEQQEATGIGYAPHVTDLGTWLQRMPTPVHKMMIMADPDIIQAIEQRLSRNEFSGLAVYRSKETYLEIVAAGVTKAAALMKLLQDDQVTPAETLAFGDNFNDVAMLQTAGIGVAMANAPQPVKEAANIVTTDNNHNGIQLTLAQYFADVTR, MGSDKIHHHHHHMIKLKKVLVLGGTRFFGKHLVEALLQDGHDVTIATRGITEDSFGSRVKRLIVDREDEKQLAERLADKSYDIVYDNLCYSSNAAKIICEVLRGKTTKYVMTSSMAVYEPALSLSEEDFDPYEYAIAYGDRNDFNYGEGKRLAEAVVFQQATFPVVAVRFPVVIGENDYTKRLQFYVEHIVREEPVAVNHLDGKLSFIHEEEAGEFLAWCGMKDIEGPINACSNGVVSTREIIHFIEENTGIKSLIQEVGDHVAPYNEVTNCTLHNGKANELGFPFRGLKIEIEKVLCYYIHAMK, MGSDKIHHHHHHMILDVDYVISAANITMQFGAKPLFENISVKFGNGNRYGLIGANGCGKSTFMRILSGEQEPSAGNVSLEPNIRIGKLRQDQFAYEDYSVVDAVIMGHEELWAVKEERDRIYSSGEMSEEDGMRVADLETEFAEMDGYTAESRAGELLLGLGIPVEQHFGLMSALAPGVKIRVLLAQVLFSEPDIMLLDEPTNNLDINTIRWLEGVLAEKQSTMIIISHDRHFLNTVCTHMADIDYGELRVYPGNYDEYMFAATQAREQLMSDNAKKKEKIAELQSFVSRFSANASKAKQATSRQKQMEKIQLDEVKASSRVNPYIRFTQEKKLYRLALETENVRKSFEDEAVLKGLSTSIEVGEKVAIIGANGIGKTTLLKCLMGEYTPDSGSIKWSENAAIGYYAQDHAHWFKQDMTVYEWMYQWKKPGDDEQAIRGVLGRMLFSSDDIQKPVSILSGGEKGRMIFGKLILQRPNILVMDEPTNHLDMESIESLNLALEQFEGTLLFVSHDREFVSTLATRIIEITDKGLRDFAGSYDEYLAQLAAA, MGSDKIHHHHHHMINFSQIQVFITIVESGGFIAAGEKMHRSQPAITNAIKKLESSLGFELFDRKVYRPQLTAKGKAFYQKAREVVAQFMQLENSAETLRSGVETQFSIDLDIALPLPGYAPLIQSFIRQYPETCFSLSNNTFVRCLERLERRECHLCIAASHIRSPQIEYLRMPSIRMIPVASRDYYDQHKERINNPKLGIYCMQIMIAGTQQELYQLKIEPLSHSMPKWLVGDMYIRKQLILSGMGIGRLPDHLVEKELAEGSLVQLNTRDYVAVTMDIYAMRLNNQEHGMVSNYAWQSLKSYAEDTVSPDLK
